The values that follow come from PMC3663881 (Journal of biomolecular screening, 2013).

The data set deals with T1, RhaS-GB1201b (RhaS L201R-GB1basic) (UniProt P09377 1-278, L201R).
T1 sequence: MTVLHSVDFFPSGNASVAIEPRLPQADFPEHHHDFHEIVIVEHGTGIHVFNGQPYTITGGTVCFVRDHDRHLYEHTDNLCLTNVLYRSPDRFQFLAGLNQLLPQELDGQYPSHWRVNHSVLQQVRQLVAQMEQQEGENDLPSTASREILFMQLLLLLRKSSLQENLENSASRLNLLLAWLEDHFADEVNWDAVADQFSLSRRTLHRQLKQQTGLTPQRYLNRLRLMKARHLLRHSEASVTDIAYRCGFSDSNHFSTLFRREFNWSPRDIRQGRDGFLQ
Briefly: EMSA.

B1: rhaBAD RhaS site probe (oligos 3058/3288) (dsDNA)
DNA 1: ACGTTCATCTTTCCCTGGTTGCCAATGGCCCATTTTCCTGTCAGTAACGAGAAGGTCGCGAA
DNA 2: TTCGCGACCTTCTCGTTACTGACAGGAAAATGGGCCATTGGCAACCAGGGAAAGATGAACGT
For B1, the binding result was “binds”.
